In paper PMC3618304:

T1: Sec61-CPLV (S. cerevisiae)
T1 sequence (P32915 whole entry, looked up): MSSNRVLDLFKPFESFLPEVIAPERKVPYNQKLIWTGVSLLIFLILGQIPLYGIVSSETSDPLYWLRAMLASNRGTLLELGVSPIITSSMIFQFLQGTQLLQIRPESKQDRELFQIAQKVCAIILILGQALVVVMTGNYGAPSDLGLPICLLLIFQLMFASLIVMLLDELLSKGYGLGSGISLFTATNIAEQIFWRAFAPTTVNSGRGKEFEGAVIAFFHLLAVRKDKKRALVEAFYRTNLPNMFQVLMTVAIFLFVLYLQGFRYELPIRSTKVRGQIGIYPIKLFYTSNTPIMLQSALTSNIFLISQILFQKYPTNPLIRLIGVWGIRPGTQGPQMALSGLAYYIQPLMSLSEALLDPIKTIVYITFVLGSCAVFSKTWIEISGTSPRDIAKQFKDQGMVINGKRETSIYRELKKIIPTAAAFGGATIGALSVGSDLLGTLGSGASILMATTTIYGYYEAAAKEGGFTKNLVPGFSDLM

T2: Ssh1-CPLV (S. cerevisiae)
T2 sequence (P38353 whole entry, looked up): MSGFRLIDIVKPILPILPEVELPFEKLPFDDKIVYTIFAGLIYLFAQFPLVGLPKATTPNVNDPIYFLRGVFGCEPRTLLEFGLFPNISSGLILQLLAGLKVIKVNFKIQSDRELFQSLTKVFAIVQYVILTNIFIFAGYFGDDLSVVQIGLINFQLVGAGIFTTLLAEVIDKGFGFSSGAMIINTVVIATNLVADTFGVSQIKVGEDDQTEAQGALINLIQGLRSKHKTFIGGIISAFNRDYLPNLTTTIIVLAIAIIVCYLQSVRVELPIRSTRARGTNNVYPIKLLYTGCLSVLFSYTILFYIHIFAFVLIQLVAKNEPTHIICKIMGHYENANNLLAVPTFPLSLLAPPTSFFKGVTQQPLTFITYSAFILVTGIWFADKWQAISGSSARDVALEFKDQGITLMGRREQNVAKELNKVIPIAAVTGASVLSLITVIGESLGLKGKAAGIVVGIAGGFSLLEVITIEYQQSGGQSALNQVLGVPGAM


Columns and labels:
[1] = molecular target: T1, Sec61-CPLV (S. cerevisiae); assay: split reporter (BiFC, NanoBiT); split-ubiquitin, cleavage of PLV from the bait read by quantitative immunoblot of cell lysates with anti-PLV and 125I-Protein A; ratio of cleaved PLV to Arf1p
[2] = molecular target: T2, Ssh1-CPLV (S. cerevisiae); assay: as above
[3] = molecular target: T1, Sec61-CPLV (S. cerevisiae); assay: two-hybrid; split-ubiquitin, liquid beta-galactosidase assay (ONPG) on cell lysates, 30°C for 180 min, mean of 6 samples
[4] = molecular target: T2, Ssh1-CPLV (S. cerevisiae); assay: as above

Binder | cleaved PLV relative to Arf1p (arbitrary units) [1] | cleaved PLV relative to Arf1p (arbitrary units) [2] | beta-galactosidase units [3] | beta-galactosidase units [4]
Nub-Sbh2p (natural protein) MAASVPPGGQRILQKRRQAQSIKEKQAKQTPTSTRQAGYGGSSSSILKLYTDEANGFRVDSLVVLFLSVGFIFSVIALHLLTKFTHII | 9.6 | 7.2 | 0.28 U | 0.45 U
Nub-Sss1p (natural protein) MARASEKGEEKKQSNNQVEKLVEAPVEFVREGTQFLAKCKKPDLKEYTKIVKAVGIGFIAVGIIGYAIKLIHIPIRYVIV | 15 | 7.1 | 6 U | 0.55 U
Nub-Sec62p (natural protein) MSAVGPGSNAGASVNGGSATAIATLLRNHKELKQRQGLFQAKQTDFFRYKRFVRALHSEEYANKSARQPEIYPTIPSNKIEDQLKSREIFIQLIKAQMVIPVKKLHSQECKEHGLKPSKDFPHLIVSNKAQLEADEYFVWNYNPRTYMDYLIVIGVVSIILALVCYPLWPRSMRRGSYYVSLGAFGILAGFFAVAILRLILYVLSLIVYKDVGGFWIFPNLFEDCGVLESFKPLYGFGEKDTYSYKKKLKRMKKKQAKRESNKKKAINEKAEQN | 6.6 | – | – | –
Nub-Sbh1p (natural protein) MSSPTPPGGQRTLQKRKQGSSQKVAASAPKKNTNSNNSILKIYSDEATGLRVDPLVVLFLAVGFIFSVVALHVISKVAGKLF | 18 | 7.1 | 9.8 U | 0.43 U
